Results on one molecule are retold here after paper PMC13138755, “Potential Rad54 separation of function mutation highlights unique roles during homologous recombination”.

This data set addresses T1, Rad54 (Saccharomyces cerevisiae, UniProt P32863 1-898).
T1 sequence: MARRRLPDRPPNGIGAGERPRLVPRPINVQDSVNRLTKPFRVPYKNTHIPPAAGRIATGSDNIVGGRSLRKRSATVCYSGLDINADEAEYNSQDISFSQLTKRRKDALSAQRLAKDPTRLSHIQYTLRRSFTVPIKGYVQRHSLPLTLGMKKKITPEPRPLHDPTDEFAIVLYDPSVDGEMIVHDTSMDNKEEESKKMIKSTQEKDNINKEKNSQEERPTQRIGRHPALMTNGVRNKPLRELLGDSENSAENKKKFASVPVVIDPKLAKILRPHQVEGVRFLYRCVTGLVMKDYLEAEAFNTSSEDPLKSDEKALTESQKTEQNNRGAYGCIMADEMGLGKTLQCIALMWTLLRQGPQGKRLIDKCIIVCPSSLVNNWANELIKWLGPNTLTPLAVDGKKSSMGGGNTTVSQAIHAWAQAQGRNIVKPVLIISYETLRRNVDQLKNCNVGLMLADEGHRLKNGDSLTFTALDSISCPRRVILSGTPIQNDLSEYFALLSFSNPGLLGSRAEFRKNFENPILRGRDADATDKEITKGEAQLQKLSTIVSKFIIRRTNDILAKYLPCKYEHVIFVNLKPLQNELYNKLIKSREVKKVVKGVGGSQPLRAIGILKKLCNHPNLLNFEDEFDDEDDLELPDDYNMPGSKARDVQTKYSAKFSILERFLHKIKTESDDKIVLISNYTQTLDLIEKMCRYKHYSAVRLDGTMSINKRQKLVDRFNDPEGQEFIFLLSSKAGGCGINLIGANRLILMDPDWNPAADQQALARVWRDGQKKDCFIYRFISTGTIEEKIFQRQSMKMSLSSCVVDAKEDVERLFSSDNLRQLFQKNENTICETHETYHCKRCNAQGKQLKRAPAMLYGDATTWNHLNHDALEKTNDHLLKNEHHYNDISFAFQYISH
The experiment in a line: EMSA; apparent Kd; Hill fit; 3 mM Mg2+; EMSA: 35 mM Tris-Cl pH 7.5, 3 mM MgCl2, 50 mM KCl, 1 mM DTT, 10% glycerol, 10 nM DNA, 30 C, 5 min, 8% native PAGE in 0.5x TBE; DNA curtains: HR buffer (composition not given), 10 nM GFP-Rad54, flow 0.2 mL/min. Particulars: protein: recombinant; tags: GFP-GST (N-term); label: Atto647N 5' on strand 1; blunt.

B1: 90 bp dsDNA (90-mer) (dsDNA)
DNA 1: GATGTTCTGCTGGATATGCACTTTTCCGGGCTGACGTACACCGTGCTCAGCCTGTTTTTCAGCGATCCGGATATGCATCCGCTGGATTTC
DNA 2: GAAATCCAGCGGATGCATATCCGGATCGCTGAAAAACAGGCTGAGCACGGTGTACGTCAGCCCGGAAAAGTGCATATCCAGCAGAACATC
Regarding B1, the Kd was determined as 21 nM.
